Test results: patent US20110034396A1

What was measured:
Experiment in all cases: cell-based or functional assay
collagen type IV = biological target: collagen type IV
[1] = biological target: bovine serum albumin (bovine) (UniProt P02769)
fibronectin = biological target: fibronectin

Chain of UniProt P02769 (P02769 25-607 limits assumed): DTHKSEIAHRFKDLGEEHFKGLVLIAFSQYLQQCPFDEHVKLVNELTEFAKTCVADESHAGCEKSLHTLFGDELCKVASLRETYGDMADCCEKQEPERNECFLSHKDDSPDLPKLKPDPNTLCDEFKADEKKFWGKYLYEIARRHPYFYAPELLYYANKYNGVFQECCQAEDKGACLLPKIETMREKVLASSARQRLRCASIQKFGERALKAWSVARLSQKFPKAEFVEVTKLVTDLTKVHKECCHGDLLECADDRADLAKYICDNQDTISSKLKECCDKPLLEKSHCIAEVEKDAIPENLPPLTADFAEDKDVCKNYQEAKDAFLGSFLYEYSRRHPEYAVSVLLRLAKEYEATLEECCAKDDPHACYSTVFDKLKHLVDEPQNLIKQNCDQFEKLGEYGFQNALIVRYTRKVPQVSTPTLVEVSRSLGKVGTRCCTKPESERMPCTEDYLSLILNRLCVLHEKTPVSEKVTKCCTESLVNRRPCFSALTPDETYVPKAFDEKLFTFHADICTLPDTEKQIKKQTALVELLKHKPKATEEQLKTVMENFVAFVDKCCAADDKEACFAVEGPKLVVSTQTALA

B1: saratin (protein)
chain: EEREDCWTFYANRKYTDFDKSFKKSSDLDECKKTCFKTEYCYIVFEDTVNKECYYNVVDGEELDQEKFVVDENFTENYLTDCEGKDAGNAAGTGDESDEVDED
Saratin IC50, MCP-1-induced human monocyte migration through filters coated with Collagen IV, coating conc. 0.01 (Boyden chamber) (collagen type IV): 0.172 nM | Saratin IC50, MCP-1-induced human monocyte migration through filters coated with Collagen IV, coating conc. 1.0 (Boyden chamber) (collagen type IV): 0.0623 nM | Saratin IC50, MIP-1alpha-induced human T lymphocyte migration through filters coated with Collagen IV, coating conc. 0.01 (Boyden chamber) (collagen type IV): 6.86 nM | Saratin IC50, MIP-1alpha-induced human T lymphocyte migration through filters coated with Collagen IV, coating conc. 1.0 (Boyden chamber) (collagen type IV): 7.9 pM | IC50 of saratin inhibition of MCP-1-induced human monocyte migration through filters coated with 1 mg/mL BSA (Boyden chamber) [1]: 37 nM | Saratin IC50, MCP-1-induced human monocyte migration through filters coated with BSA, coating conc. 1.0 as the table prints it (the text gives 1.1 nM for 0.01 mg/mL BSA) (Boyden chamber) [1]: 1.1 nM | Saratin IC50, MIP-1alpha-induced human T lymphocyte migration through filters coated with BSA, coating conc. 1.0 (Boyden chamber) [1]: 185 nM | Saratin IC50, MCP-1-induced human monocyte migration through filters coated with Fibronectin, coating conc. 1.0 (Boyden chamber) (fibronectin): 19.4 nM | Saratin IC50, MIP-1alpha-induced human T lymphocyte migration through filters coated with Fibronectin, coating conc. 1.0 (Boyden chamber) (fibronectin): 3.69 nM
